Our source for the amyloid nucleation score values is the supplement of paper PMC12042874.

± gives the uncertainty stated by the source.

This data set is described as follows: amyloid nucleation score (Sup35N fusion, yeast selection) (log enrichment); library NNK1; higher = more nucleation; inactive = no reads after selection. Summed up: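 Yeast lacking psi expressed peptides of 20 random codons fused to Sup35N, received 100 μM copper sulfate for 24 hours, and were then grown for 7 days at 30°C on medium lacking adenine and uracil. Illumina sequencing of input and output plasmid inserts provided the reads. Nucleation scores are DiMSum log enrichments of output over input, centred on the mode of non-aggregating sequences. Any sequence with under 100 input reads was excluded.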
APLYLHMWSCYSLMLSPSMG returned an amyloid nucleation score of -1.5 ± 2.4.
As for APRCKSIWS, the amyloid nucleation score is -0.706 ± 0.59.
The substance APSSKF returned an amyloid nucleation score of 0.062 ± 1.1.
AQYELLMQRNWYVGKDLVRG displayed an amyloid nucleation score of -0.192 ± 0.42.
In turn, ARFVDYPCALLWARTSR displayed an amyloid nucleation score of -0.375 ± 0.56.
ARGHGFQPVGPLGSVILMAR registered an amyloid nucleation score of -0.302 ± 0.68.
ARHRDALFRCEDMFGKVQYS: the amyloid nucleation score is -0.296 ± 0.56.
Substance ARRRF gave an amyloid nucleation score of -0.345 ± 1.7.
ARTGCHKVYLAAACSYGRFS displayed an amyloid nucleation score of 0.188 ± 0.34.
As to ARTRVLMKQVQGFKSFTILH, the amyloid nucleation score came to 0.192 ± 0.52.
On to ARVNVWAVGWSENNSNLKI, for which the amyloid nucleation score is 0.916 ± 0.24.
ARYGVSGHAYDTNPRRYFGQ gave an amyloid nucleation score of -0.903 ± 2.4.
ASEVCKY yielded an amyloid nucleation score of 0.375 ± 0.79.
As for ASKFYHFRTQEYTS, the amyloid nucleation score amounted to 0.212 ± 0.28.
ASKKGPWFYSAVSYGLA showed an amyloid nucleation score of -0.128 ± 0.34.
For ASLTDVYIDELRLSNEGTWN, the amyloid nucleation score was determined as 1.94 ± 0.65.
Consider ASLVDVGSP, for which the amyloid nucleation score was determined as 0.215 ± 0.32.
ASRRSSHHSGRMHRAQLSGF returned an amyloid nucleation score of -1.5 ± 1.8.
As for ASSVSMFFYIWFLDAHVGYL, the amyloid nucleation score is 0.364 ± 0.33.
The same measure for ASVAHLCGQLTVDTGFRITG: 0.138 ± 0.33; for ASYGIIVSSLFFNGRGCHWS: 3.81 ± 0.096; for ATCPLYEVLSCYARVKFANT: -0.357 ± 0.33.
On to ATFSFGRT, for which the amyloid nucleation score entry is “inactive”.
Regarding ATGTSWYVPGRVGLCGYWLI, the amyloid nucleation score was -0.153 ± 0.23.
Substance ATHKNWIKRDTVHSLDGC returned an amyloid nucleation score of 0.041 ± 0.26.
Turning to ATLLFRFV, the amyloid nucleation score was 0.831 ± 0.64.
As to ATRSMEAIIMRELWYIDPVY, the amyloid nucleation score amounted to 0.831 ± 0.87.
Under AVCSMKKSVMYELNVGFTYR stands “inactive”.
The same measure for AVFHRREVRELAHRQPLLPI: 1.03 ± 0.66; for AVFIGCVNAGS: 0.621 ± 0.39.
On to AVFLY, for which the amyloid nucleation score is -0.153 ± 0.33.
For AVLIRSGCRIRNRRHG, the amyloid nucleation score turned out to be 0.782 ± 0.75.
Consider AVLKGYRWACMVFLSGFGRC, for which the amyloid nucleation score is 0.243 ± 0.41.
The substance AVLLCRSESCCKYSAIANSG came in with an amyloid nucleation score of -1.22 ± 0.69.
AVMMHDTVGVHW displayed an amyloid nucleation score of -0.609 ± 0.6.
The substance AVSIWSPRIGVCETFQLDVV showed an amyloid nucleation score of -0.573 ± 0.57.
Under AVSSYYVERRYLNLQGANRY stands 3.22 ± 0.15; under AWMGLKNVN, 1.59 ± 0.69; under AWYMPIWFLAYFL, 1.24 ± 0.14.
As to AYAGLRCVGSDVIAGKTVAN, the amyloid nucleation score is 0.684 ± 1.2.
Substance AYCLRN gave an amyloid nucleation score of 0.211 ± 0.68.
As to AYFMVHLLIF, the amyloid nucleation score was 1.34 ± 0.13.
On to AYNFRSRRWMLFGYNWVSAP, for which the amyloid nucleation score was 1.59 ± 0.51.
In turn, AYNLLYN displayed an amyloid nucleation score of 1.59 ± 0.69.
In the case of AYVDAL, the amyloid nucleation score was determined as 1.53 ± 0.48.
AYVRGCLFILPFRPTQV returned an amyloid nucleation score of 1.42 ± 0.14.
For CAFEAGLWTSDFLNEPVYHY, the amyloid nucleation score was -0.126 ± 0.3.
CCDIEITLSHGVIGICSRKT displayed an amyloid nucleation score of 0.844 ± 0.26.
Under CCDVHGCVGNMLSFTGILLF stands 3.54 ± 0.076; under CCGGECLRVYRIMLGTVECT, 0.329 ± 0.28.
The substance CCHRGCGAFVGWMHQFGWYI returned an amyloid nucleation score of -0.186 ± 0.42.
The same measure for CCIFIDFTVIALGRTLVVRH: -1.17 ± 1.2; for CCPDSQIIRYNIYAVVYLRM: 1.92 ± 0.57.
Under CCVNVPIFRRKFGTCSCKAW stands 0.065 ± 0.93; under CDEGWEESNSTD, -0.522 ± 1.6.
CDERNNAFLGVFGSS yielded an amyloid nucleation score of -0.288 ± 0.47.
Under CDGLLYELRSVEWGKGKLNG stands 0.438 ± 0.38.
Turning to CDGNHSRSLRLIDLGPGF, the amyloid nucleation score is -0.558 ± 1.1.
Consider CDLFSRACGSAMDTYNKSHI, for which the amyloid nucleation score was -1.01 ± 0.9.
The same measure for CDNDSMWGYCLTTRMGRFTA: -0.379 ± 0.59; for CDNRRNFSSWVVDISKYITI: -0.946 ± 0.57.
CDRLIKVSYRFIGAADRRWM: the amyloid nucleation score was determined as 1.35 ± 0.76.
Turning to CDSVV, the amyloid nucleation score was -0.221 ± 0.73.
On to CDWGN, for which the amyloid nucleation score stood at 1.14 ± 0.93.
Under CEVSIVSLARYVGREDLFDR stands 0.213 ± 0.65.
CFCFFIVSPMMF had an amyloid nucleation score of 3.89 ± 0.056.
In the case of CFCFKPSVKE, the amyloid nucleation score was -1.71 ± 2.4.
Take CFDNSFTFPPDG: the amyloid nucleation score came to 0.066 ± 0.3.
The same measure for CFFPIRDQQCTRSYHFSDHM: 0.727 ± 0.63; for CFIIIQPCANGWWYRCRSCV: -0.236 ± 0.38.
CFKFARGGVLI came in with an amyloid nucleation score of 1.32 ± 0.66.
In turn, CFLYNSFYILDISELLQGST came in with an amyloid nucleation score of 4.81 ± 0.049.
Regarding CFMETYSWKVRYTLFHKLST, the amyloid nucleation score is 0.552 ± 0.79.
For the substance CFNMFT, the amyloid nucleation score was -0.607 ± 0.76.
The same measure for CFPDICWHSVK: 0.125 ± 0.79; for CFPMIQMEHSIKS: -0.449 ± 1.1; for CFPRSRRRQRSFNLCVRESR: 1.13 ± 0.57.
CFPSSVFVGCIFF displayed an amyloid nucleation score of 7.532 ± 0.044.
In the case of CFQPWKNLKAY, the amyloid nucleation score is -0.67 ± 0.68.
Take CFRFDYVGTYKHMPFR: the amyloid nucleation score amounted to 4.02 ± 0.16.
Turning to CFRHRYRQLGIMWWGLRLQL, the amyloid nucleation score is -1.44 ± 2.4.
CFRISARFFRVQFHGVVCIW had an amyloid nucleation score of 1.51 ± 0.25.
CFSISVTAYHSKSAT registered an amyloid nucleation score of 4.14 ± 0.099.
Turning to CFSSNCMEFLSNVLYKNINP, the amyloid nucleation score was 0.626 ± 0.78.
As to CFVVCDMAF, the amyloid nucleation score result was “inactive”.
CFWRNFDRGEAS: the amyloid nucleation score is 0.94 ± 0.97.
CGAYRMWQYKASRGTHWPYT displayed an amyloid nucleation score of -0.182 ± 0.6.
Consider CGFEVFVRIV, for which the amyloid nucleation score was 0.431 ± 0.7.
Substance CGKTMGINAGMCSTNWGGPT showed an amyloid nucleation score of 0.263 ± 0.33.
On to CGPELNESQG, for which the amyloid nucleation score is -0.485 ± 0.67.
As to CGRTYRGLS, the amyloid nucleation score was determined as 0.959 ± 0.72.
The substance CGYMLVYDAHMHRSLLCAC gave an amyloid nucleation score of -0.285 ± 0.26.
With CHLVSSTSAFA, the amyloid nucleation score is 1.01 ± 0.56.
For CHMKYFREVVATV, the amyloid nucleation score amounted to 0.186 ± 1.1.
Under CHSINLGLNPFKYVNLPNGH stands 2.38 ± 0.15; under CHTTKNYVYCVCMQFVTHQ, 6.725 ± 0.045; under CIDYYLCLNMYRTGWYLRLC, “inactive”.
CIISGMLWLAMKRTMGIELW returned an amyloid nucleation score of 2.88 ± 0.18.
The substance CIRVWCLILSRSWGFTPANC had an amyloid nucleation score of 1.18 ± 0.9.
The same measure for CKDCYLITGVVINYPSRPLW: 5.985 ± 0.049.
As for CKKSCGSVRSNASLTKDWSN, the amyloid nucleation score is -0.097 ± 0.28.
CKNNGGKDMSVMI gave an amyloid nucleation score of 1.14 ± 0.49.
CKRWRSILVKSSRSIMGTDV showed an amyloid nucleation score of -0.171 ± 1.1.
Under CKSRR stands 0.034 ± 0.69; under CLEFLG, -0.526 ± 0.49; under CLETACRILGFCN, -0.488 ± 0.21.
Under CLFFNYRVIEFNTPGVNMFW stands 0.739 ± 0.33; under CLGQDKLWNFVFTFLYLLQF, -0.172 ± 0.48; under CLHFFTQTTVWCKHVSSQKV, 0.21 ± 0.48.
For CLILG, the amyloid nucleation score was -1.31 ± 0.52.
Consider CLLLARVVALVGPPSRTSGV, for which the amyloid nucleation score is -0.121 ± 0.4.
In turn, CLLRTRFWR yielded an amyloid nucleation score of 0.364 ± 0.56.
Regarding CLPNSYGAV, the amyloid nucleation score was 0.435 ± 0.53.
The same measure for CLYVAESSTTMNLWDHSVLP: -0.575 ± 0.41; for CMHEKIYIITCRSCGLREIR: 0.164 ± 0.39; for CMVSIQVVFKH: 4.44 ± 0.1.
For the substance CNDISISFYMRTGACYWRVW, the amyloid nucleation score is -0.499 ± 0.46.
The same measure for CNMSQC: “inactive”.
Take CNPEGYRAHVLCFLNFA: the amyloid nucleation score worked out at 3.63 ± 0.092.
Consider CNRSLWAGPRLHPWTRMYVR, for which the amyloid nucleation score was 0.85 ± 0.62.
On to CNYCIWPARFVVIHDAMCVS, for which the amyloid nucleation score was -0.98 ± 1.1.
For the substance CPASVMAKRYCQLKMGWWGP, the amyloid nucleation score came to 0.202 ± 0.37.
The same measure for CPLAIVDTVHCRNSSSFSQ: -0.488 ± 0.45.
The substance CPPSYLMT registered an amyloid nucleation score of -0.464 ± 0.45.
Substance CPRIYGVRLKSSRLPAGVYV displayed an amyloid nucleation score of 1 ± 1.
With CPVMA, the amyloid nucleation score was -0.094 ± 0.27.
As to CQELYLKFVVENFSTFLRNH, the amyloid nucleation score was -2.68 ± 2.7.
Take CQVPGSRRHRRSIRERQNWN: the amyloid nucleation score was 1.32 ± 0.62.
With CRAGLVMSGWCRWFAQWMDS, the amyloid nucleation score is -0.551 ± 0.59.
On to CRCMLSLLRIRLGVSSARLG, for which the amyloid nucleation score is 0.143 ± 0.49.
Under CRLDGT stands -0.36 ± 0.72.
CRLESGHYLCSHGRVSGLR: the amyloid nucleation score came to 0.796 ± 0.38.
The same measure for CRLISCDRFRSTRSKG: 0.016 ± 0.52; for CRLKH: 0.123 ± 0.3.
Substance CRRRPSSDELSVLWDAEGRY had an amyloid nucleation score of 0.009 ± 0.66.
In turn, CSAYGKNTMGSESPVMSMAS displayed an amyloid nucleation score of 0.368 ± 0.72.
The substance CSCGLSYGLYFE gave an amyloid nucleation score of 0.786 ± 0.92.
Under CSGNRMDPLTVRLFVGLGIL stands 0.347 ± 0.43; under CSHRM, 0.707 ± 0.51.
The same measure for CSILF: 0.011 ± 0.75.
Under CSRNDTVHATINMWDNSATA stands -0.07 ± 0.41; under CSRTMTWYP, -1.14 ± 1.3; under CSSDFYYLAELNLPFN, 0.917 ± 0.43.
